Values of other authors in article doi:10.1101/2025.09.24.678334.

Biological target: TATA-binding protein (Homo sapiens) (UniProt P20226)
Chain of UniProt P20226 (P20226 whole entry): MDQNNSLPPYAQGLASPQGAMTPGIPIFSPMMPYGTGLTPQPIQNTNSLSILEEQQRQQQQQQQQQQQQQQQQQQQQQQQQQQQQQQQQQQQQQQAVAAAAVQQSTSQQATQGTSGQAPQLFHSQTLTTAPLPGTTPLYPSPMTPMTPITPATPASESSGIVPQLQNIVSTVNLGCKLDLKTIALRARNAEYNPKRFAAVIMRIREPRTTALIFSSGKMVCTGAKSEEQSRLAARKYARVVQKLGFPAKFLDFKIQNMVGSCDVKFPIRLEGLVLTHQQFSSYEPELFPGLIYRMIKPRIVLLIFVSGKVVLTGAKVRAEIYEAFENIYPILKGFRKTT

Substance: Importin 9 (from UniProt Q96P70)
- Kd: 1 nM
